Article PMC4955127 (Biotechnology for Biofuels, 2016)
One block for each molecule: values may come before it.

How the values were obtained:
[1] = biological target: T1, Bgl3A (Evansstolkia leycettana, UniProt A0A1B0VFN7); assay: glucose inhibition of pNPG hydrolysis; format: biochemical; details: product inhibition; substrate pNPG
T1 construct: mature enzyme without native signal peptide (residues 1-19 of 737 removed)
T1 sequence (A0A1B0VFN7 20-737): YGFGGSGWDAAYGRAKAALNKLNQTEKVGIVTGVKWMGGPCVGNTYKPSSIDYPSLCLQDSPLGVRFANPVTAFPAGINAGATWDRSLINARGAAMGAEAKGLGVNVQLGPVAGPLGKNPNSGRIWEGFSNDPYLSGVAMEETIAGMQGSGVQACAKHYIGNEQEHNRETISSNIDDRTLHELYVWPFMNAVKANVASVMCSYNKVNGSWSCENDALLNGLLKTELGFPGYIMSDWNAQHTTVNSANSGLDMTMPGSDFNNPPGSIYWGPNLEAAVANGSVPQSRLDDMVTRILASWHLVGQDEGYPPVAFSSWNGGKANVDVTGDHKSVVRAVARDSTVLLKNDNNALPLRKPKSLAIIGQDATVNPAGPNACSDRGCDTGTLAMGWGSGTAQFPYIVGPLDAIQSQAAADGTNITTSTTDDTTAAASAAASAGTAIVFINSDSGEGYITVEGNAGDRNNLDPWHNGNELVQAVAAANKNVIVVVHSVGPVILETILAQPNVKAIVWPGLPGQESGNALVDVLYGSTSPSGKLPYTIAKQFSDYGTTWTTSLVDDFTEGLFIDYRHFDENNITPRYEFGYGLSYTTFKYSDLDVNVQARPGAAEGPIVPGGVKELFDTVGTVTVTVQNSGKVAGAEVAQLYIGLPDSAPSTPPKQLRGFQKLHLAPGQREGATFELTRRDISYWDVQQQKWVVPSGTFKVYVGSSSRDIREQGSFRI

[2] = substrate: O=[N+]([O-])c1ccc(O[C@@H]2O[C@H](CO)[C@@H](O)[C@H](O)[C@H]2O)cc1; assay: purified protein; details: 100 mM Na2HPO4-citric acid, optimal conditions (pH 4.5, 75 °C), 5 min

- Ki [1]: 14 mM
Molecule: OC[C@H]1OC(O)[C@H](O)[C@@H](O)[C@@H]1O (some centres unmarked) [glucose]

B1: Bgl3A (Evansstolkia leycettana) (protein)
chain: T1 sequence (A0A1B0VFN7 20-737)
- Km [2]: 180 µM
- Vmax [2]: 1310 µmol/min/mg
- kcat [2]: 1660 s⁻¹
- kcat/Km [2]: 9.1e+06 M⁻¹ s⁻¹
